This is an account of results in US6284456.

In this data set the test system is HIV-1 Tat Tat-1 delta1-47 (Human immunodeficiency virus 1 (HXB2)). The data set is described as follows: EMSA. The following applies: truncated Tat-1 (construct assumed delta1-47).

HIV-2 TAR-2 RNA wt (+1 to +123) registered a binding signal (fold higher affinity than for TAR-1) of 4.
